Data from paper PMC5339343, “Evaluation of Rint1 as a modifier of intestinal tumorigenesis and cancer risk” (PLoS ONE, 2017).

What was measured:
[1] = biological target: T1, FLAG-tagged full-length human RINT1 I152M (human, UniProt Q6NUQ1 1-792, I152M); test: co-IP; FLAG-RINT1 plasmids co-transfected with the UVRAG plasmid into HEK293T; lysate in TNE buffer (10 mM Tris acetate, 0.5% NP-40, 2 mM EDTA); anti-FLAG M2 affinity gel overnight, eluted with FLAG peptide; blot for UVRAG, quantified; settings: partners not purified
T1 construct: The change copies a variant of the B6 mouse Rint1 allele into human RINT1; The results sentence on UVRAG prints I152T; the methods made only I152M; also called RINT1 n.456A>G (I152M); RINT1 I152M allele; source: HEK293T, transfected, in lysate
T1 sequence (Q6NUQ1 whole entry I152M): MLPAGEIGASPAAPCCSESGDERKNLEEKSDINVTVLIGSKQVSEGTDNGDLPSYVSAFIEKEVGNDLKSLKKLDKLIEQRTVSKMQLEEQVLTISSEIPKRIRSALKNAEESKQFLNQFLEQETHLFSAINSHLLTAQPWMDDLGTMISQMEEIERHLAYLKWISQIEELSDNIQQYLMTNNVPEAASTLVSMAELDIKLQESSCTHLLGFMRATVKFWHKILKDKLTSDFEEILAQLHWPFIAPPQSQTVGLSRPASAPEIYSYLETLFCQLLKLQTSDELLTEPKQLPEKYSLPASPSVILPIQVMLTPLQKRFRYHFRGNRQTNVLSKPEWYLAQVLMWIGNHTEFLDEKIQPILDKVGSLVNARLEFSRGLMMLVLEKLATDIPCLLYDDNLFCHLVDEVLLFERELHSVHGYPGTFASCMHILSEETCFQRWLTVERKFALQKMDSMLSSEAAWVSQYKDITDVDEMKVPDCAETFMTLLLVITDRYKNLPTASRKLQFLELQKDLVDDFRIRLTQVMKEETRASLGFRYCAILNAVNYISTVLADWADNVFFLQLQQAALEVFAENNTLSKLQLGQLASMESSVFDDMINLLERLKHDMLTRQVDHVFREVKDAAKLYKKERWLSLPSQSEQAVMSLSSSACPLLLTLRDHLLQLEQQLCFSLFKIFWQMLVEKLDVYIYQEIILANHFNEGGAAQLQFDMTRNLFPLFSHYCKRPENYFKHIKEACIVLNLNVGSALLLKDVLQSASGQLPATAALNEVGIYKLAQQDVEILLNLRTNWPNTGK

[2] = biological target: T2, FLAG-tagged full-length human RINT1 I152M; I168T (human, UniProt Q6NUQ1 1-792, I152M | I168T); test: as above; settings: partners not purified
T2 construct: The results sentence on UVRAG prints I152T;I168T; the methods made only I152M and I168T together; also called RINT1 n.456A>G; n.503T>C (I152M and I168T); source: HEK293T, transfected, in lysate
T2 sequence (Q6NUQ1 whole entry I152M/I168T): as the sequence (Q6NUQ1 whole entry I152M) above, with I168T counted along it

- fold change of UVRAG co-immunoprecipitation against wild-type RINT1 [1]: ≥ 2 fold
- fold change of UVRAG co-immunoprecipitation against wild-type RINT1 [2]: ≥ 2 fold
B1: UVRAG expressed from pCl-neo-HA-hUVRAG (natural protein, human, UniProt Q9P2Y5 1-699, looked up)
chain: MSASASVGGPVPQPPPGPAAALPPGSAARALHVELPSQQRRLRHLRNIAARNIVNRNGHQLLDTYFTLHLCSTEKIYKEFYRSEVIKNSLNPTWRSLDFGIMPDRLDTSVSCFVVKIWGGKENIYQLLIEWKVCLDGLKYLGQQIHARNQNEIIFGLNDGYYGAPFEHKGYSNAQKTILLQVDQNCVRNSYDVFSLLRLHRAQCAIKQTQVTVQKIGKEIEEKLRLTSTSNELKKKSECLQLKILVLQNELERQKKALGREVALLHKQQIALQDKGSAFSAEHLKLQLQKESLNELRKECTAKRELFLKTNAQLTIRCRQLLSELSYIYPIDLNEHKDYFVCGVKLPNSEDFQAKDDGSIAVALGYTAHLVSMISFFLQVPLRYPIIHKGSRSTIKDNINDKLTEKEREFPLYPKGGEKLQFDYGVYLLNKNIAQLRYQHGLGTPDLRQTLPNLKNFMEHGLMVRCDRHHTSSAIPVPKRQSSIFGGADVGFSGGIPSPDKGHRKRASSENERLQYKTPPPSYNSALAQPVTTVPSMGETERKITSLSSSLDTSLDFSKENKKKGEDLVGSLNGGHANVHPSQEQGEALSGHRATVNGTLLPSEQAGSASVQLPGEFHPVSEAELCCTVEQAEEIIGLEATGFASGDQLEAFNCIPVDSAVAVECDEQVLGEFEEFSRRIYALNENVSSFRRPRRSSDK
notes: UVRAG, human (hUVRAG), from the plasmid pCl-neo-HA-hUVRAG (Itakura et al. 2008); Detected with an anti-UVRAG antibody; source: HEK293T, transfected, in lysate
